Data: the Immune Epitope Database (IEDB)

Legend:
[1] = target: HLA-A*68:23; assay: IEDB peptide-MHC binding, purified MHC/competitive/fluorescence; filed as Kd, often an IC50 or EC50 that approximates it; ≥ and ≤ were set here for values at or beyond the usual limits of such assays; settings: source organism: Salmonella enterica subsp. enterica serovar Typhimurium str. LT2
[2] = target: HLA-A*02:06; assay: as above; settings: source organism: Salmonella enterica subsp. enterica serovar Typhimurium str. LT2
[3] = target: HLA-B*45:06; assay: as above; settings: source organism: Salmonella enterica subsp. enterica serovar Typhimurium str. LT2
[4] = target: HLA-B*15:17; assay: as above; settings: source organism: Salmonella enterica subsp. enterica serovar Typhimurium str. LT2
[5] = target: HLA-B*15:42; assay: as above; settings: source organism: Salmonella enterica subsp. enterica serovar Typhimurium str. LT2
[6] = target: HLA-A*02:03; assay: as above; settings: source organism: Salmonella enterica subsp. enterica serovar Typhimurium str. LT2
[7] = target: HLA-B*15:01; assay: as above; settings: source organism: Salmonella enterica subsp. enterica serovar Typhimurium str. LT2
[8] = target: HLA-B*83:01; assay: as above; settings: source organism: Salmonella enterica subsp. enterica serovar Typhimurium str. LT2
[9] = target: HLA-B*40:01; assay: IEDB peptide-MHC binding, purified MHC/direct/fluorescence; filed as Kd, often an IC50 or EC50 that approximates it; ≥ and ≤ were set here for values at or beyond the usual limits of such assays; settings: source organism: Salmonella enterica
[10] = target: HLA-A*03:01; assay: as above; settings: source organism: Salmonella enterica
[11] = target: HLA-B*08:01; assay: as above; settings: source organism: Salmonella enterica subsp. enterica serovar Typhimurium str. LT2
[12] = target: HLA-A*02:01; assay: as above; settings: source organism: Salmonella enterica
[13] = target: HLA-A*26:02; assay: as above; settings: source organism: Salmonella enterica subsp. enterica serovar Typhimurium str. LT2
[14] = target: HLA-B*18:01; assay: as above; settings: source organism: Salmonella enterica subsp. enterica serovar Typhimurium str. LT2
[15] = target: HLA-A*29:02; assay: as above; settings: source organism: Salmonella enterica subsp. enterica serovar Typhimurium str. LT2
[16] = target: HLA-A*24:03; assay: as above; settings: source organism: Salmonella enterica subsp. enterica serovar Typhimurium str. LT2
[17] = target: HLA-B*38:01; assay: as above; settings: source organism: Salmonella enterica subsp. enterica serovar Typhimurium str. LT2
[18] = target: HLA-A*02:50; assay: as above; settings: source organism: Salmonella enterica subsp. enterica serovar Typhimurium str. LT2
[19] = target: HLA-A*11:01; assay: as above; settings: source organism: Salmonella enterica
[20] = target: HLA-A*23:01; assay: as above; settings: source organism: Salmonella enterica subsp. enterica serovar Typhimurium str. LT2
[21] = target: HLA-B*08:02; assay: as above; settings: source organism: Salmonella enterica subsp. enterica serovar Typhimurium str. LT2
[22] = target: HLA-A*02:10; assay: as above; settings: source organism: Salmonella enterica subsp. enterica serovar Typhimurium str. LT2
[23] = target: HLA-A*02:19; assay: as above; settings: source organism: Salmonella enterica subsp. enterica serovar Typhimurium str. LT2
[24] = target: HLA-A*02:12; assay: as above; settings: source organism: Salmonella enterica subsp. enterica serovar Typhimurium str. LT2
[25] = target: HLA-B*51:01; assay: as above; settings: source organism: Salmonella enterica subsp. enterica serovar Typhimurium str. LT2

FPASHMATY was tested, and the Kd [1] was 0.006 µM, the Kd [2] was 1.29 µM and the Kd [3] was at least 5 µM. The Kd [4] was at least 20 µM, the Kd [5] was at least 5 µM and the Kd [6] was at least 20 µM. It also gave a Kd [7] of 0.334 µM, a Kd [8] of 0.22 µM and a Kd [9] of at least 20 µM. The Kd [10] was at least 20 µM, the Kd [11] was at least 20 µM and the Kd [12] was at least 20 µM. It also gave a Kd [13] of at most 0.001 µM, a Kd [14] of 0.007 µM and a Kd [15] of 0.114 µM. The Kd [16] was at least 20 µM, the Kd [17] was at least 20 µM and the Kd [18] was at least 20 µM. It also gave a Kd [19] of at least 20 µM, a Kd [20] of at least 20 µM and a Kd [21] of at least 20 µM. It also gave a Kd [22] of at least 20 µM, a Kd [23] of at least 20 µM and a Kd [24] of at least 20 µM. It also gave a Kd [25] of at least 20 µM.
